From PMC10713552 (Communications Biology, 2023)

Legend:
[1] = target: D614G-Hexapro (WT) spike ectodomain (SARS-CoV-2 Wuhan-Hu-1 D614G, D614G); experiment: BLI
[2] = target: Omicron BA.1 spike protein ectodomain (BLI) (SARS-CoV-2 Omicron BA.1, strain); experiment: BLI

B1: 0306-IN3_T65I (antibody, V domains shown)
VH: QVQLQQWGPGLVNPSETLSLTCSVSGGSFATENYYWSWIRQHPGEGLEWIGNIYFSGNIYYNPSLNNRFTISFDTSKNHLSLKLPSVTAADTAVYYCARGTIYFDISGYRRVDPFHIWGQGTMVIVSS
VL: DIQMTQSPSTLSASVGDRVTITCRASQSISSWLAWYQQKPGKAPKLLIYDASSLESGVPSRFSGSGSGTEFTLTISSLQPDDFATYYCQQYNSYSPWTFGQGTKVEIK
notes: source: Expi293F, transfected
Kd [1]: 524 nM | koff [1]: 0.000136 s⁻¹ | kon [1]: 259 M⁻¹ s⁻¹ | Kd [2]: 4.36 nM | koff [2]: 0.000517 s⁻¹ | kon [2]: 119000 M⁻¹ s⁻¹

B2: 0316-IN3_T65V (antibody, V domains shown)
VH: QVQLQQWGPGLVNPSETLSLTCSVSGGSFATENYYWSWIRQHPGEGLEWIGNIYFSGNVYYNPSLNNRFTISFDTSKNHLSLKLPSVTAADTAVYYCARGTIYFDISGYRRVDPFHIWGQGTMVIVSS
VL: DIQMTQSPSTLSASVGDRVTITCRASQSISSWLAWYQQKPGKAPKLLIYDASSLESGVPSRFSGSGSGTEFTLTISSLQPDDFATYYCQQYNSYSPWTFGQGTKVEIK
notes: source: Expi293F, transfected
Kd [1]: 89.3 nM | koff [1]: 2.62e-05 s⁻¹ | kon [1]: 294 M⁻¹ s⁻¹ | Kd [2]: 10.6 nM | koff [2]: 0.000555 s⁻¹ | kon [2]: 52400 M⁻¹ s⁻¹

B3: 0303-IN3_T65F (antibody, V domains shown)
VH: QVQLQQWGPGLVNPSETLSLTCSVSGGSFATENYYWSWIRQHPGEGLEWIGNIYFSGNFYYNPSLNNRFTISFDTSKNHLSLKLPSVTAADTAVYYCARGTIYFDISGYRRVDPFHIWGQGTMVIVSS
VL: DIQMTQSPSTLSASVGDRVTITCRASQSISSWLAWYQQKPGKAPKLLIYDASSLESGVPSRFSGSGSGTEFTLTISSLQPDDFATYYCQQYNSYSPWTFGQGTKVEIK
notes: source: Expi293F, transfected
Kd [1]: 0.129 nM | koff [1]: 0.000115 s⁻¹ | kon [1]: 887000 M⁻¹ s⁻¹ | Kd [2]: 6.04 nM | koff [2]: 0.000575 s⁻¹ | kon [2]: 95200 M⁻¹ s⁻¹

B4: 0309-IN3_T65M (antibody, V domains shown)
VH: QVQLQQWGPGLVNPSETLSLTCSVSGGSFATENYYWSWIRQHPGEGLEWIGNIYFSGNMYYNPSLNNRFTISFDTSKNHLSLKLPSVTAADTAVYYCARGTIYFDISGYRRVDPFHIWGQGTMVIVSS
VL: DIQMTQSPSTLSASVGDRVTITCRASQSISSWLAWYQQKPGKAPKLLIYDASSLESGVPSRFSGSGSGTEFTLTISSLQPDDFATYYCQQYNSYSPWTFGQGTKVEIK
notes: source: Expi293F, transfected
kon [1]: 184 M⁻¹ s⁻¹ | Kd [2]: 15.7 nM | koff [2]: 0.00102 s⁻¹ | kon [2]: 64800 M⁻¹ s⁻¹

B5: 0370-N3_T65R (antibody, V domains shown)
VH: QVQLQQWGPGLVNPSETLSLTCSVSGGSFATENYYWSWIRQHPGEGLEWIGNIYFSGNRYYNPSLNNRFTISFDTSKNHLSLKLPSVTAADTAVYYCARGTIYFDRSGYRRVDPFHIWGQGTMVIVSS
VL: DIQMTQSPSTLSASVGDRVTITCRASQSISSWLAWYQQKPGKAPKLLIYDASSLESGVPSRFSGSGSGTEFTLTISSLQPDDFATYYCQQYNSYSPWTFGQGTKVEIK
notes: source: Expi293F, transfected
Kd [1]: 111 nM | koff [1]: 3.63e-05 s⁻¹ | kon [1]: 328 M⁻¹ s⁻¹ | Kd [2]: 12.1 nM | koff [2]: 0.000266 s⁻¹ | kon [2]: 22000 M⁻¹ s⁻¹

B6: 0311-IN3_T65P (antibody, V domains shown)
VH: QVQLQQWGPGLVNPSETLSLTCSVSGGSFATENYYWSWIRQHPGEGLEWIGNIYFSGNPYYNPSLNNRFTISFDTSKNHLSLKLPSVTAADTAVYYCARGTIYFDISGYRRVDPFHIWGQGTMVIVSS
VL: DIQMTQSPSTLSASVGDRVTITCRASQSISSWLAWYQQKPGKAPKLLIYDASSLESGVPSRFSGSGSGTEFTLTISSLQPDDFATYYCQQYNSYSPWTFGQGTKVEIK
notes: source: Expi293F, transfected
Kd [1]: 200 nM | koff [1]: 0.000578 s⁻¹ | kon [1]: 2890 M⁻¹ s⁻¹ | Kd [2]: 10.9 nM | koff [2]: 0.000965 s⁻¹ | kon [2]: 88200 M⁻¹ s⁻¹

B7: 0331-LN3_T65Q (antibody, V domains shown)
VH: QVQLQQWGPGLVNPSETLSLTCSVSGGSFATENYYWSWIRQHPGEGLEWIGNIYFSGNQYYNPSLNNRFTISFDTSKNHLSLKLPSVTAADTAVYYCARGTIYFDLSGYRRVDPFHIWGQGTMVIVSS
VL: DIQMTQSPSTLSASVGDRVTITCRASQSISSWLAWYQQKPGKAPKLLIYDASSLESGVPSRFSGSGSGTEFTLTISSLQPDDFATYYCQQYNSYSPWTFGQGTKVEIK
notes: source: Expi293F, transfected
Kd [1]: 1.18 nM | koff [1]: 0.00083 s⁻¹ | kon [1]: 703000 M⁻¹ s⁻¹ | Kd [2]: 38.2 nM | koff [2]: 0.00223 s⁻¹ | kon [2]: 58400 M⁻¹ s⁻¹

B8: 0313-IN3_T65R (antibody, V domains shown)
VH: QVQLQQWGPGLVNPSETLSLTCSVSGGSFATENYYWSWIRQHPGEGLEWIGNIYFSGNRYYNPSLNNRFTISFDTSKNHLSLKLPSVTAADTAVYYCARGTIYFDISGYRRVDPFHIWGQGTMVIVSS
VL: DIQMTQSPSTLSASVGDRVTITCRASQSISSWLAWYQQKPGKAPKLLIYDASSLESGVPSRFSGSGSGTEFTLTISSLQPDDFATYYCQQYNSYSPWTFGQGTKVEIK
notes: source: Expi293F, transfected
Kd [1]: 0.873 nM | koff [1]: 0.000516 s⁻¹ | kon [1]: 591000 M⁻¹ s⁻¹ | Kd [2]: 7.36 nM | koff [2]: 0.000758 s⁻¹ | kon [2]: 103000 M⁻¹ s⁻¹

B9: 0377-YN3_T65D (antibody, V domains shown)
VH: QVQLQQWGPGLVNPSETLSLTCSVSGGSFATENYYWSWIRQHPGEGLEWIGNIYFSGNDYYNPSLNNRFTISFDTSKNHLSLKLPSVTAADTAVYYCARGTIYFDYSGYRRVDPFHIWGQGTMVIVSS
VL: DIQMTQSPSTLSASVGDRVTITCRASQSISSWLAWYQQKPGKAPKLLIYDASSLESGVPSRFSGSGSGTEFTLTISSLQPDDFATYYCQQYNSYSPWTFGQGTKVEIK
notes: source: Expi293F, transfected
Kd [1]: 634 nM | koff [1]: 0.000153 s⁻¹ | kon [1]: 242 M⁻¹ s⁻¹ | Kd [2]: 13.4 nM | koff [2]: 0.000269 s⁻¹ | kon [2]: 20100 M⁻¹ s⁻¹

B10: 0317-IN3_T65W (antibody, V domains shown)
VH: QVQLQQWGPGLVNPSETLSLTCSVSGGSFATENYYWSWIRQHPGEGLEWIGNIYFSGNWYYNPSLNNRFTISFDTSKNHLSLKLPSVTAADTAVYYCARGTIYFDISGYRRVDPFHIWGQGTMVIVSS
VL: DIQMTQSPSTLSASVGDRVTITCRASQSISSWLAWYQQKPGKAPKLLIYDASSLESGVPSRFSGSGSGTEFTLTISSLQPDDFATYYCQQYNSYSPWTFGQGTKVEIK
notes: source: Expi293F, transfected
Kd [1]: 1.41 nM | koff [1]: 0.000282 s⁻¹ | kon [1]: 199000 M⁻¹ s⁻¹ | Kd [2]: 16.3 nM | koff [2]: 0.000834 s⁻¹ | kon [2]: 51200 M⁻¹ s⁻¹

B11: 0330-LN3_T65P (antibody, V domains shown)
VH: QVQLQQWGPGLVNPSETLSLTCSVSGGSFATENYYWSWIRQHPGEGLEWIGNIYFSGNPYYNPSLNNRFTISFDTSKNHLSLKLPSVTAADTAVYYCARGTIYFDLSGYRRVDPFHIWGQGTMVIVSS
VL: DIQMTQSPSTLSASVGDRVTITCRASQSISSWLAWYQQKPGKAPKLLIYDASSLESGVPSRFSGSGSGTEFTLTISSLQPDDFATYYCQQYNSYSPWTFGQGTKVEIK
notes: source: Expi293F, transfected
Kd [1]: 686 nM | koff [1]: 0.00219 s⁻¹ | kon [1]: 3190 M⁻¹ s⁻¹ | Kd [2]: 32.6 nM | koff [2]: 0.00229 s⁻¹ | kon [2]: 70200 M⁻¹ s⁻¹

B12: 0337-LN3_T65Y (antibody, V domains shown)
VH: QVQLQQWGPGLVNPSETLSLTCSVSGGSFATENYYWSWIRQHPGEGLEWIGNIYFSGNYYYNPSLNNRFTISFDTSKNHLSLKLPSVTAADTAVYYCARGTIYFDLSGYRRVDPFHIWGQGTMVIVSS
VL: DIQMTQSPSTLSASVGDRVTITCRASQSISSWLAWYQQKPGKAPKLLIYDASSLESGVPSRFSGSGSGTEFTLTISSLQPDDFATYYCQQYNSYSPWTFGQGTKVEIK
notes: source: Expi293F, transfected
Kd [1]: 87.3 nM | koff [1]: 0.000393 s⁻¹ | kon [1]: 4500 M⁻¹ s⁻¹ | Kd [2]: 11.7 nM | koff [2]: 0.000305 s⁻¹ | kon [2]: 26100 M⁻¹ s⁻¹

B13: 0302-IN3_T65E (antibody, V domains shown)
VH: QVQLQQWGPGLVNPSETLSLTCSVSGGSFATENYYWSWIRQHPGEGLEWIGNIYFSGNEYYNPSLNNRFTISFDTSKNHLSLKLPSVTAADTAVYYCARGTIYFDISGYRRVDPFHIWGQGTMVIVSS
VL: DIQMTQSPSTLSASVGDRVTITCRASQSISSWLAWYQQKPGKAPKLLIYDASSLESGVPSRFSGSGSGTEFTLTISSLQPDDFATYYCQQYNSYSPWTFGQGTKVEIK
notes: source: Expi293F, transfected
Kd [1]: 776 nM | koff [1]: 0.000163 s⁻¹ | kon [1]: 210 M⁻¹ s⁻¹ | Kd [2]: 8.27 nM | koff [2]: 0.000634 s⁻¹ | kon [2]: 76700 M⁻¹ s⁻¹

B14: 0338-MN3_T65A (antibody, V domains shown)
VH: QVQLQQWGPGLVNPSETLSLTCSVSGGSFATENYYWSWIRQHPGEGLEWIGNIYFSGNAYYNPSLNNRFTISFDTSKNHLSLKLPSVTAADTAVYYCARGTIYFDMSGYRRVDPFHIWGQGTMVIVSS
VL: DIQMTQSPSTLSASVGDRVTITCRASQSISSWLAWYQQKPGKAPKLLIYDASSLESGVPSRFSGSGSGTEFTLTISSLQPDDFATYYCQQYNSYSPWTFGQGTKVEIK
notes: source: Expi293F, transfected
Kd [1]: 373 nM | koff [1]: 0.000121 s⁻¹ | kon [1]: 325 M⁻¹ s⁻¹ | Kd [2]: 25 nM | koff [2]: 0.00154 s⁻¹ | kon [2]: 61800 M⁻¹ s⁻¹

B15: 0333-LN3_T65S (antibody, V domains shown)
VH: QVQLQQWGPGLVNPSETLSLTCSVSGGSFATENYYWSWIRQHPGEGLEWIGNIYFSGNSYYNPSLNNRFTISFDTSKNHLSLKLPSVTAADTAVYYCARGTIYFDLSGYRRVDPFHIWGQGTMVIVSS
VL: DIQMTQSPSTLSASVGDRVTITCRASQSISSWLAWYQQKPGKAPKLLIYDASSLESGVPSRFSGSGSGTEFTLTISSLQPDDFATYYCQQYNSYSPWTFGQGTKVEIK
notes: source: Expi293F, transfected
Kd [1]: 146 nM | koff [1]: 4.17e-05 s⁻¹ | kon [1]: 285 M⁻¹ s⁻¹ | Kd [2]: 11.7 nM | koff [2]: 0.000566 s⁻¹ | kon [2]: 48500 M⁻¹ s⁻¹

B16: 0388-YN3_T65Q (antibody, V domains shown)
VH: QVQLQQWGPGLVNPSETLSLTCSVSGGSFATENYYWSWIRQHPGEGLEWIGNIYFSGNQYYNPSLNNRFTISFDTSKNHLSLKLPSVTAADTAVYYCARGTIYFDYSGYRRVDPFHIWGQGTMVIVSS
VL: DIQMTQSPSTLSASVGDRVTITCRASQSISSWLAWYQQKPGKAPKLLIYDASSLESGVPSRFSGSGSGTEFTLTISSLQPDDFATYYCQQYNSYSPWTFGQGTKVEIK
notes: source: Expi293F, transfected
Kd [1]: 1910 nM | koff [1]: 0.00186 s⁻¹ | kon [1]: 973 M⁻¹ s⁻¹ | Kd [2]: 37.7 nM | koff [2]: 0.00058 s⁻¹ | kon [2]: 15400 M⁻¹ s⁻¹

B17: 0318-IN3_T65Y (antibody, V domains shown)
VH: QVQLQQWGPGLVNPSETLSLTCSVSGGSFATENYYWSWIRQHPGEGLEWIGNIYFSGNYYYNPSLNNRFTISFDTSKNHLSLKLPSVTAADTAVYYCARGTIYFDISGYRRVDPFHIWGQGTMVIVSS
VL: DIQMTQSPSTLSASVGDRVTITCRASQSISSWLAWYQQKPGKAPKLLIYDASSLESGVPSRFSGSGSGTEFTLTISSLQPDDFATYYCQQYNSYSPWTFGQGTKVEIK
notes: source: Expi293F, transfected
Kd [1]: 1.07 nM | koff [1]: 0.000222 s⁻¹ | kon [1]: 207000 M⁻¹ s⁻¹ | Kd [2]: 29.4 nM | koff [2]: 0.00117 s⁻¹ | kon [2]: 39800 M⁻¹ s⁻¹

B18: 0373-N3_T65V (antibody, V domains shown)
VH: QVQLQQWGPGLVNPSETLSLTCSVSGGSFATENYYWSWIRQHPGEGLEWIGNIYFSGNVYYNPSLNNRFTISFDTSKNHLSLKLPSVTAADTAVYYCARGTIYFDRSGYRRVDPFHIWGQGTMVIVSS
VL: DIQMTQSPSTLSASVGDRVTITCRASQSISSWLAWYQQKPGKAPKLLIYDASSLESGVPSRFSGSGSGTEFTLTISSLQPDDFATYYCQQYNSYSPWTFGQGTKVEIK
notes: source: Expi293F, transfected
Kd [1]: 324 nM | koff [1]: 0.000461 s⁻¹ | kon [1]: 1420 M⁻¹ s⁻¹ | Kd [2]: 16 nM | koff [2]: 0.000565 s⁻¹ | kon [2]: 35200 M⁻¹ s⁻¹

B19: 0312-IN3_T65Q (antibody, V domains shown)
VH: QVQLQQWGPGLVNPSETLSLTCSVSGGSFATENYYWSWIRQHPGEGLEWIGNIYFSGNQYYNPSLNNRFTISFDTSKNHLSLKLPSVTAADTAVYYCARGTIYFDISGYRRVDPFHIWGQGTMVIVSS
VL: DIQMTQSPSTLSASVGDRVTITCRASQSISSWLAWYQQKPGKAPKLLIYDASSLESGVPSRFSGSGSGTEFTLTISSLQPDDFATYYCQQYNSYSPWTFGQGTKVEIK
notes: source: Expi293F, transfected
Kd [1]: 2.23 nM | koff [1]: 0.000511 s⁻¹ | kon [1]: 229000 M⁻¹ s⁻¹ | Kd [2]: 13.2 nM | koff [2]: 0.000887 s⁻¹ | kon [2]: 67300 M⁻¹ s⁻¹

B20: 0360-N3_T65F (antibody, V domains shown)
VH: QVQLQQWGPGLVNPSETLSLTCSVSGGSFATENYYWSWIRQHPGEGLEWIGNIYFSGNFYYNPSLNNRFTISFDTSKNHLSLKLPSVTAADTAVYYCARGTIYFDRSGYRRVDPFHIWGQGTMVIVSS
VL: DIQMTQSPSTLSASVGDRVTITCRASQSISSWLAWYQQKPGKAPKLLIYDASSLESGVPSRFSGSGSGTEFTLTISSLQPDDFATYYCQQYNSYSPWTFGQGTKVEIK
notes: source: Expi293F, transfected
Kd [1]: 355 nM | koff [1]: 0.000217 s⁻¹ | kon [1]: 612 M⁻¹ s⁻¹ | Kd [2]: 18.5 nM | koff [2]: 0.000659 s⁻¹ | kon [2]: 35700 M⁻¹ s⁻¹

B21: 0301-IN3_T65D (antibody, V domains shown)
VH: QVQLQQWGPGLVNPSETLSLTCSVSGGSFATENYYWSWIRQHPGEGLEWIGNIYFSGNDYYNPSLNNRFTISFDTSKNHLSLKLPSVTAADTAVYYCARGTIYFDISGYRRVDPFHIWGQGTMVIVSS
VL: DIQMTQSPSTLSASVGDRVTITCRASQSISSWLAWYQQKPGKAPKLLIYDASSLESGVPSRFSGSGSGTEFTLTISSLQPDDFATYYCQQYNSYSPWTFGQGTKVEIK
notes: source: Expi293F, transfected
Kd [1]: 306 nM | koff [1]: 6.75e-05 s⁻¹ | kon [1]: 221 M⁻¹ s⁻¹ | Kd [2]: 6.38 nM | koff [2]: 0.000601 s⁻¹ | kon [2]: 94200 M⁻¹ s⁻¹

B22: 0307-IN3_T65K (antibody, V domains shown)
VH: QVQLQQWGPGLVNPSETLSLTCSVSGGSFATENYYWSWIRQHPGEGLEWIGNIYFSGNKYYNPSLNNRFTISFDTSKNHLSLKLPSVTAADTAVYYCARGTIYFDISGYRRVDPFHIWGQGTMVIVSS
VL: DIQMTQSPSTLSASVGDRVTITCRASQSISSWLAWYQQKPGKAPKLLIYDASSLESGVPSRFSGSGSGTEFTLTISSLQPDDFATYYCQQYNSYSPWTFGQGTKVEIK
notes: source: Expi293F, transfected
Kd [1]: 0.208 nM | koff [1]: 5.6e-05 s⁻¹ | kon [1]: 269000 M⁻¹ s⁻¹ | Kd [2]: 31.7 nM | koff [2]: 0.000872 s⁻¹ | kon [2]: 27500 M⁻¹ s⁻¹

B23: 0342-MN3_T65G (antibody, V domains shown)
VH: QVQLQQWGPGLVNPSETLSLTCSVSGGSFATENYYWSWIRQHPGEGLEWIGNIYFSGNGYYNPSLNNRFTISFDTSKNHLSLKLPSVTAADTAVYYCARGTIYFDMSGYRRVDPFHIWGQGTMVIVSS
VL: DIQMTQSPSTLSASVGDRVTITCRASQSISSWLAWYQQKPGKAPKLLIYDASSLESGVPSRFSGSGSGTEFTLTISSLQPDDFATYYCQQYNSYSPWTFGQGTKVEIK
notes: source: Expi293F, transfected
Kd [1]: 69.1 nM | koff [1]: 0.000217 s⁻¹ | kon [1]: 3140 M⁻¹ s⁻¹ | Kd [2]: 8.08 nM | koff [2]: 0.000428 s⁻¹ | kon [2]: 53000 M⁻¹ s⁻¹
